Here are results for 2 substances from PMC13245411.

Targets include mouse HA-tagged REDIC1 (UniProt A0A087WRU1); mouse HA-tagged M1AP (UniProt Q9Z0E1); human HA-tagged M1AP (UniProt Q8TC57); human HA-tagged REDIC1 (UniProt Q86WS4).
Holding throughout (assay): co-IP (anti-FLAG) in HEK293T cells, band intensity quantified
Holding throughout (settings): parent: est. 1.0; read off a plot

UniProt Q86WS4, sequence (Q86WS4 whole entry): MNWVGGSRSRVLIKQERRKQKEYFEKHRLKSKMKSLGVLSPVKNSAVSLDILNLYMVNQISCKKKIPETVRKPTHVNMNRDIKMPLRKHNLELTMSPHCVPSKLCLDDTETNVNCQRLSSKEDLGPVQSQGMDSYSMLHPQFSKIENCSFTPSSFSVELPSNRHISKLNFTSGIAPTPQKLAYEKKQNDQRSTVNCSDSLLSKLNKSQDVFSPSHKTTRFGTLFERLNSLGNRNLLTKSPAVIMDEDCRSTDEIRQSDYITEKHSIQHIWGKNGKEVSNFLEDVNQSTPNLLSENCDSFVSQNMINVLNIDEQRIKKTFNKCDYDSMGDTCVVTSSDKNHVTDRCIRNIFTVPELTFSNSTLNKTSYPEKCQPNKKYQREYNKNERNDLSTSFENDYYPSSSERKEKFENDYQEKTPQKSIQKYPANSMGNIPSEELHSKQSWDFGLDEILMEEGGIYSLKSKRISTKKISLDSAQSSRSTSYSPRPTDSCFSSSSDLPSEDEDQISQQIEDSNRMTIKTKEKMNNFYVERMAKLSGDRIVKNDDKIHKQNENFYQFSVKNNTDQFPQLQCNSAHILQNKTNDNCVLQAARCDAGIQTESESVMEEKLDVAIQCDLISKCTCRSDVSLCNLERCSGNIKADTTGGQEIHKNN
UniProt A0A087WRU1, sequence (A0A087WRU1 whole entry): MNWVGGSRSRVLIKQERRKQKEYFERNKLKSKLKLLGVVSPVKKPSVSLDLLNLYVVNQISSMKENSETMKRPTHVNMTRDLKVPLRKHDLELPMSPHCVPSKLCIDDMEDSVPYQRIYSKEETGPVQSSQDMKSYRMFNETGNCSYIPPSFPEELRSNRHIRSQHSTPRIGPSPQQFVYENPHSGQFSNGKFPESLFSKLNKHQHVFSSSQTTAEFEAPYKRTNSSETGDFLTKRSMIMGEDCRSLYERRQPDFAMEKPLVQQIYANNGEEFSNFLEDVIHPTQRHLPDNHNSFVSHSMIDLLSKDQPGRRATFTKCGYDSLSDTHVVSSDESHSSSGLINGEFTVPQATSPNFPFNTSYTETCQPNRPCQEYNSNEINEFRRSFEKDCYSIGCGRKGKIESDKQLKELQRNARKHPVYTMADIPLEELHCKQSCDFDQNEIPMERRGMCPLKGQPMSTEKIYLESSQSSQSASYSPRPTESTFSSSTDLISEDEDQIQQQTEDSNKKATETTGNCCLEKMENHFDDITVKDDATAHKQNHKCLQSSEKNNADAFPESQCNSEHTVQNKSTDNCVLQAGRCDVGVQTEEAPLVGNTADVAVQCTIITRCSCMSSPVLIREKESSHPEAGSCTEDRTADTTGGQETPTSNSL
UniProt Q9Z0E1, sequence (Q9Z0E1 whole entry): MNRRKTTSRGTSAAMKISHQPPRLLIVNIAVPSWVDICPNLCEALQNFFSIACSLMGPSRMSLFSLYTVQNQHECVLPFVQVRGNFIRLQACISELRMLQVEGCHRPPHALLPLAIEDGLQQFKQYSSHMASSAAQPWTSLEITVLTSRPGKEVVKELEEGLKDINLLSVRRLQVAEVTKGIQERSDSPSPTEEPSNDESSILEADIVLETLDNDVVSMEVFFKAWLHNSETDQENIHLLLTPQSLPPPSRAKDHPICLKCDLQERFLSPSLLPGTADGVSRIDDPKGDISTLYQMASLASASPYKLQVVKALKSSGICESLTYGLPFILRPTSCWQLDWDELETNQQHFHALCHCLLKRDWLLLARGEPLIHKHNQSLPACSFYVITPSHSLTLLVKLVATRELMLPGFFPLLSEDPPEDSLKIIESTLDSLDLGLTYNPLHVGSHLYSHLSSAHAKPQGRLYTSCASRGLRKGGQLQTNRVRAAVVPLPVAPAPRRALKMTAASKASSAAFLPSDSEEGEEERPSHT
UniProt Q8TC57, sequence (Q8TC57 whole entry): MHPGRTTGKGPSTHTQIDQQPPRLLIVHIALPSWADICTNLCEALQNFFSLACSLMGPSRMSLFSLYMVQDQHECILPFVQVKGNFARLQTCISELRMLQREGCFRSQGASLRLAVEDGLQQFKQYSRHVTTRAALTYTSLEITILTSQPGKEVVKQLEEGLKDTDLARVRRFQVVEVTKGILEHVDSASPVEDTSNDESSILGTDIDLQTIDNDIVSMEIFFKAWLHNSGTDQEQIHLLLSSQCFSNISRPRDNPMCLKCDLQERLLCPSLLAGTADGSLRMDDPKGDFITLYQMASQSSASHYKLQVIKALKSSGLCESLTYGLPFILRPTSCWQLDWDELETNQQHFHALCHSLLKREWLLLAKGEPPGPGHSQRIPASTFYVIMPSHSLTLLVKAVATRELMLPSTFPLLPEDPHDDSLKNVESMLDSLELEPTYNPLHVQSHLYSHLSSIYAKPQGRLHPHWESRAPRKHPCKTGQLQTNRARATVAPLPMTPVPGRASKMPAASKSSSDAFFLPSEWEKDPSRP

In the case of mouse SHOC1-XPF (WT, FLAG-tagged) Q646R, the ratio to parent with mouse HA-tagged REDIC1 worked out at 1.1; in the assay with mouse HA-tagged M1AP it was 0.5.

On to human SHOC1-XPF (WT, FLAG-tagged) Q590R, for which the results for the ratio to parent in the assay with human HA-tagged M1AP and with human HA-tagged REDIC1 were 0.44 and 1, respectively.
